Here are results for 2 proteins from patent publication US20080249083.

The target in this data set is T1, amyloid β(3-11).
T1 chain: EFRHDSGYE

B1: YSShisoQCI55NC351A C-His (human isoQC expressed in P. pastoris) (protein)
chain: FYTIWSGWHRRTEELPLGRELRVPLNGSLPEARLRRVVGQLDPQRLWSTYLRPLLVVRTPGSPGNLQVRKFLEATLRSLTAGWHVELDPFTASTPLGPVDFGNVVATLDPRAARHLTLACHYDSKLFPPGSTPFVGATDSAVPCALLLELAQALDLELSRAKKQAAPVTLQLLFLDGEEALKEWGPKDSLYGSRHLAQLMESIPHSPGPTRIQAIELFMLLDLLGAPNPTFYSHFPRTVRWFHRLRSIEKRLHRLNLLQSHPQEVMYFQPGEPFGSVEDDHIPFLRRGVPVLHLISTPFPAVWHTPADTEVNLHPPTVHNLARILAVFLAEYLGLHHHHHH
As to B1, the “conversion of Aβ(3-11) into pGlu-Aβ(3-11), Maldi-Tof mass spectrometry” value is “human QC and human isoQC (YSShisoQCI55NC351A C-His) catalyze the conversion of Aβ(3-11) into pGlu-Aβ(3-11); the conversion of N-terminal glutamic acid by hisoQC is much slower compared with hQC”.

B2: human QC (glutaminyl cyclase, QPCT) (protein)
chain: VSPSASAWPEEKNYHQPAILNSSALRQIAEGTSISEMWQNDLQPLLIERYPGSPGSYAARQHIMQRIQRLQADWVLEIDTFLSQTPYGYRSFSNIISTLNPTAKRHLVLACHYDSKYFSHWNNRVFVGATDSAVPCAMMLELARALDKKLLSLKTVSDSKPDLSLQLIFFDGEEAFLHWSPQDSLYGSRHLAAKMASTPHPPGARGTSQLHGMDLLVLLDLIGAPNPTFPNFFPNSARWFERLQAIEHELHELGLLKDHSLEGRYFQNYSYGGVIQDDHIPFLRRGVPVLHLIPSPFPEVWHTMDDNEENLDESTIDNLNKILQVFVLEYLHL
In the case of B2, the “conversion of Aβ(3-11) into pGlu-Aβ(3-11), Maldi-Tof mass spectrometry” value was “human QC and human isoQC (YSShisoQCI55NC351A C-His) catalyze the conversion of Aβ(3-11) into pGlu-Aβ(3-11)”.
